Data reported in US20220389118A1 (Chugai, published 2022).
Residue numbers refer to the chain shown, from its start.

How the values were obtained:
[1] = target: T1, soluble human IL-6 receptor (human, UniProt P08887 20-357); experiment: SPR (Biacore T100), about 300 RU of antibody captured on a Protein A/G chip (CM5), human IL-6 receptor as analyte, pH 7.4, 1.2 mM CaCl2, 37 °C
T1 construct: also called hsIL-6R
T1 sequence: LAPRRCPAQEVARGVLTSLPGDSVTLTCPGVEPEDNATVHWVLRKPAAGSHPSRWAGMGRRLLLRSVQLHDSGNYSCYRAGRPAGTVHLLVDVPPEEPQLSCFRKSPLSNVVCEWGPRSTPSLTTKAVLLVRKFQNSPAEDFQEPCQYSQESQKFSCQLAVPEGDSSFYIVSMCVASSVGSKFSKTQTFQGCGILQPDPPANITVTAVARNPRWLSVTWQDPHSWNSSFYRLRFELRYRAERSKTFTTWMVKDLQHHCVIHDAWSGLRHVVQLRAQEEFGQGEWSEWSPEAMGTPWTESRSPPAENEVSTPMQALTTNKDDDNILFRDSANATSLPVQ
Experimental: These buffers were each used to dilute human IL-6 receptor. All measurements were carried out at 37° C.
Then, 10 mM glycine-HCl (pH 1.5) was injected at a flow rate of 30 μl/min for 30 seconds to regenerate the sensor chip.

[2] = target: T1, soluble human IL-6 receptor; experiment: SPR (Reference Example 6)
Experimental: (§1) The kinetic analysis of the antigen-antibody reactions was conducted in solutions with 2 mM and 3 μM calcium ion concentrations, set as high and low calcium ion concentration conditions, respectively. The antibody of interest was captured on Sensor chip CM4 (GE Healthcare) on which an appropriate amount of Protein A (Invitrogen) was immobilized by an amine coupling method. Two buffers [10 mM ACES, 150 mM NaCl, 0.05% (w/v) Tween 20, and 2 mM CaCl₂) (pH 7.4) or 10 mM ACES, 150 mM NaCl, 0.05% (w/v) Tween 20, and 3 μmol/L CaCl₂ (pH 7.4)] were used as running buffers. These buffers were used for diluting human IL-6 receptor. All the measurements were conducted at 37° C.
(§2) Subsequently, the sensor chip was regenerated by injecting 10 mM glycine-HCl (pH 1.5) at a flow rate 30 μL/min for 30 seconds. Dissociation constants (KD) (M) were calculated from the sensorgrams obtained in the measurement, using a steady-state affinity model. Each parameter was calculated using the Biacore T100 Evaluation Software (GE Healthcare).

[3] = target: T2, soluble human IL-6 receptor (hsIL-6R) (human, UniProt P08887 20-357); experiment: SPR (Biacore T100), 3 µM CaCl2; estimated by Equation 3; summary table
T2 sequence: T1 sequence
Experimental: as §1, §2

[4] = target: T2, soluble human IL-6 receptor (hsIL-6R); experiment: SPR (Biacore T100), 3 µM CaCl2, pH 7.4, 37 C; KD estimated from Req, Rmax, RI and C by Equation 3
Experimental: as §1, §2

[5] = target: T3, human FcγRIIa type H (H131) extracellular domain with C-terminal His tag (human, UniProt P12318 34-217); experiment: SPR (Biacore), antibody captured, FcγR analyte
T3 construct: extracellular domain; also called FcγRIIaH; not shown: His tag at the C terminus
T3 sequence (looked up): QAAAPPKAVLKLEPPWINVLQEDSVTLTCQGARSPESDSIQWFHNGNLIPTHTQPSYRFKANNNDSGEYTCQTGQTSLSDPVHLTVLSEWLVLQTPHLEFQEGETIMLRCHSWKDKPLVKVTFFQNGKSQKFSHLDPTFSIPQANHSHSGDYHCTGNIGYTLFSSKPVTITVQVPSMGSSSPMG

[6] = target: T4, human FcγRIa extracellular domain with C-terminal His tag (human, UniProt P12314 16-292); experiment: SPR (Biacore), antibody captured, FcγR analyte
T4 construct: not shown: His tag at the C terminus
T4 sequence (P12314 16-292): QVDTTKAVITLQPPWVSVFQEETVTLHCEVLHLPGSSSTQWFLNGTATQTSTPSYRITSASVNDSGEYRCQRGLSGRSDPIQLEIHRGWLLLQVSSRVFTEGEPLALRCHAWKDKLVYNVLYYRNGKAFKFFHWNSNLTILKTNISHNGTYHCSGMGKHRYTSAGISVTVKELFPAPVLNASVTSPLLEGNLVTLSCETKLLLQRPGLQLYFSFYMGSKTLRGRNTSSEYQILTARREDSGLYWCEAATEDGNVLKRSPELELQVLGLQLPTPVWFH

[7] = target: T5, human FcγRIIa type H extracellular domain (human, UniProt P12318 34-217); experiment: SPR (Biacore), antibody captured on chip, FcγR extracellular domain as analyte, 25 C
T5 construct: also called FcγRIIaH; FcγRIIa(H); not shown: His tag at the C terminus
T5 sequence: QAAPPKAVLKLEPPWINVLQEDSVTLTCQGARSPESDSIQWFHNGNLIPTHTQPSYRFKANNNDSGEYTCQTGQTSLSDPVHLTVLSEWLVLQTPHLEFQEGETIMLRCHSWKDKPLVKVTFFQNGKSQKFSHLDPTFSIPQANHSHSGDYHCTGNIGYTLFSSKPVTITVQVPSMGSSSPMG

[8] = target: T6, human FcγRIIa type R extracellular domain (human, UniProt P12318 34-217); experiment: as above
T6 construct: also called FcγRIIaR; FcγRIIa(R); not shown: His tag at the C terminus
T6 chain: T5 sequence with H133R

[9] = target: T7, human FcγRIa extracellular domain (human, UniProt P12314 16-292); experiment: as above
T7 construct: also called CD64; not shown: His tag at the C terminus
T7 sequence (P12314 16-292): as the sequence (P12314 16-292) above

[10] = target: T8, human FcγRIIb extracellular domain (human, UniProt P31994 43-217); experiment: as above
T8 construct: also called FcγIIB; not shown: His tag at the C terminus
T8 sequence: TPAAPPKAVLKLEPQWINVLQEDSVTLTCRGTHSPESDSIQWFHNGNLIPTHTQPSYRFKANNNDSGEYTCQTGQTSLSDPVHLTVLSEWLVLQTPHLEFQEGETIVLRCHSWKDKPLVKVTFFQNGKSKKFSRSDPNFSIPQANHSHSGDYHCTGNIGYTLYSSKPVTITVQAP

[11] = target: T8, human FcγRIIb extracellular domain; experiment: ratio of the SPR KD for FcγRIIaR to the KD for FcγRIIb (selectivity)
[12] = target: T6, human FcγRIIa type R extracellular …; experiment: fold against IL6R-B3/IL6R-L, from SPR KD values
[13] = target: T8, human FcγRIIb extracellular domain; experiment: fold against IL6R-B3/IL6R-L, from SPR KD values
[14] = target: T8, human FcγRIIb extracellular domain; experiment: ratio of the SPR KD for FcγRIIaH to the KD for FcγRIIb (selectivity)
[15] = target: T9, human FcγRIIb extracellular domain with C-terminal His tag (human, UniProt P31994 43-217); experiment: SPR (Biacore), antibody captured, FcγR analyte
T9 construct: extracellular domain; not shown: His tag at the C terminus
T9 sequence (looked up): T8 sequence

B1: 6RpH#02 (antibody, human IgG1, kappa, V domains shown)
VH: QVQLVQSGAEVKKPGSSVKVSCKASGGTFSSYAISWVRQAPGQGLEWMGGIIPIFGTANYAQKFQGRVTITADESTSTAYMELSSLRSEDTAVYYCMINGVWEGGMDVWGQGTTVTVSS
VL: DIQMTQSPSSLSASVGDRVTITCRASQSIHSHLNWYQQKPGKAPKLLIYHASKLQSGVPSRFSGSGSGTDFTLTISSLQPEDFATYYCQQHGNSPLTFGQGTKVEIKR
binding result [1]: binds

B2: FH4-IgG1 (antibody, V domains shown)
VH: QVQLVQSGAEVKKPGSSVKVSCKASGGTFSSYAISWVRQAPGQGLEWMGGIIPIFGTANYAQKFQGRVTITADESTSTAYMELSSLRSEDTAVYYCARERDYYDSSGYYDAFDIWGQGTMVTVSS
VL: ETTVTQSPSFLSASVGDRVTITCITTTDIDDDMNWFQQEPGKAPKLLISEGNILRPGVPSRFSSSGYGTDFTLTISKLQPEDFATYYCLQSDNLPFTFGQGTKLEIKR
Ca-dependent binding ability [2]: ≥ 100 fold

B3: FH4-IgG1 (antibody, V domains shown)
VH: B2 VH
VL: B2 VL
Kd [3]: ≥ 34000 nM
Kd [4]: ~34000 nM

B4: 6RL#9-IgG1 (antibody, V domains shown)
VH: QVQLVQSGAEVKKPGASVKVSCKASGYTFTSYYMHWVRQAPGQGLEWMGIINPSGGSTSYAQKFQGRVTMTRDTSTSTVYMELSSLRSEDTAVYYCARDDPGGGEYYFDYWGQGTLVTVSS
VL: QSVLTQPPSVSGAPGQRVTISCTGSRSNMGAGYDVHWYQLLPGAAPKLLISHNTHRPSGVPDRFSGSKSGASASLAITGLQAEDEADYYCQSHDSSLSAVVFGGGTKLTVLS
notes: also called antibody 6RL#9
Ca-dependent binding ability [2]: ≥ 100 fold

B5: 6RL#9-IgG1 (antibody, V domains shown)
VH: B4 VH
VL: B4 VL
Kd [3]: ≥ 31000 nM
Kd [4]: ~31000 nM

B6: IL6R-BP447/IL6R-L (antibody, human IgG1, kappa)
heavy: QVQLQESGPGLVKPSETLSLTCAVSGHSISHDHAWSWVRQPPGEGLEWIGFISYSGITNYNPSLQGRVTISRDNSKNTLYLQMNSLRAEDTAVYYCARSLARTTAMDYWGEGTLVTVSSASTKGPSVFPLAPSSKSTSGGTAALGCLVKDYFPEPVTVSWNSGALTSGVHTFPAVLQSSGLYSLSSVVTVPSSSLGTQTYICNVNHKPSNTKVDKKVEPKSCDKTHTCPPCPAPDLLGDDSVFLFPPKPKDTLMISRTPEVTCVVVDVAEEDGEVKFNWYVDGVEVHNAKTKPREEQYNSTYRVVSVLTVLHQDWLNGKEYKCKVSNKALPRPIEKTISKAKGQPREPQVYTLPPSRDELTKNQVSLTCLVKGFYPSDIAVEWESNGQPENNYKTTPAVLDSDGSFFLYSKLTVDKSRWQQGNVFSCSVMHEALHNHYTQESLSLSP
light: not shown
notes: P396A introduced into IL6R-BP423; copies: 2 + 2
Kd [5]: 2000 nM
Kd [6]: 0.9 nM

B7: IL6R-BP563/IL6R-L (antibody, human IgG1, kappa)
heavy: B6 heavy with A269S, E274D, Y298D, A398P
light: not shown
notes: copies: 2 + 2
Kd [7]: 8300 nM
Kd [8]: 460 nM
Kd [9]: 12 nM
Kd [10]: 16 nM
KD(IIaR)/KD(IIb) [11]: 29.1
KD(IIaR) of the parent polypeptide/KD(IIaR) of the altered polypeptide [12]: 2.4
KD(IIb) of the parent polypeptide/KD(IIb) of the altered polypeptide [13]: 196
KD(IIaH)/KD(IIb) [14]: 525

B8: IL6R-BP464/IL6R-L (antibody, human IgG1, kappa)
heavy: B6 heavy with A398Y
light: not shown
notes: P396Y introduced into IL6R-BP423; copies: 2 + 2
Kd [15]: 4 nM

B9: IL6R-BP455/IL6R-L (antibody, human IgG1, kappa)
heavy: B6 heavy with A398L
light: not shown
notes: P396L introduced into IL6R-BP423; copies: 2 + 2
Kd [15]: 4 nM
Kd [5]: 1600 nM

B10: IL6R-BP565/IL6R-L (antibody, human IgG1, kappa)
heavy: B6 heavy with Y298D, A398P
light: not shown
notes: copies: 2 + 2
Kd [7]: 4700 nM
Kd [8]: 230 nM
Kd [9]: 2.4 nM
Kd [10]: 5.5 nM
KD(IIaR)/KD(IIb) [11]: 41.5
KD(IIaR) of the parent polypeptide/KD(IIaR) of the altered polypeptide [12]: 4.8
KD(IIb) of the parent polypeptide/KD(IIb) of the altered polypeptide [13]: 565
KD(IIaH)/KD(IIb) [14]: 856

B11: IL6R-BP456/IL6R-L (antibody, human IgG1, kappa)
heavy: B6 heavy with A398M
light: not shown
notes: P396M introduced into IL6R-BP423; copies: 2 + 2
Kd [5]: 2000 nM
Kd [6]: 0.6 nM
